From paper PMC7016005 (2020) come the findings set out here.

B1: mouse Twist1, wildtype [mouse] / mouse E2A [mouse] (parent complex)
chain 1: MMQDVSSSPVSPADDSLSNSEEEPDRQQPASGKRGARKRRSSRRSAGGSAGPGGATGGGIGGGDEPGSPAQGKRGKKSAGGGGGGGAGGGGGGGGGSSSGGGSPQSYEELQTQRVMANVRERQRTQSLNEAFAALRKIIPTLPSDKLSKIQTLKLAARYIDFLYQVLQSDELDSKMASCSYVAHERLSYAFSVWRMEGAWSMSASH
chain 2: MMNQSQRMAPVGSDKELSDLLDFSMMFPLPVANGKSRPASLGGTQFAGSGLEDRPSSGSWGSSDQNSSSFDPSRTYSEGAHFSDSHSSLPPSTFLGAGLGGKGSERNAYATFGRDTSVGTLSQAGFLPGELSLSSPGPLSPSGIKSSSQYYPSFPSNPRRRAADGGLDTQPKKVRKVPPGLPSSVYPPSSGDSYSRDAAAYPSAKTPSSAYPSPFYVADGSLHPSAELWSTPSQVGFGPMLGDGSSPLPLAPGSSSVGSGTFGGLQQQDRMGYQLHGSEVNGSLPAVSSFSAAPGTYSGTSGHTPPVSGAAAESLLGTRGTTASSSGDALGKALASIYSPDHSSNNFSPSPSTPVGSPQGLPGTSQWPRAGAPSALSPNYDAGLHGLSKMEDRLDEAIHVLRSHAVGTASDLHGLLPGHGALTTSFTGPMSLGGRHAGLVGGSHPEEGLTSGASLLHNHASLPSQPSSLPDLSQRPPDSYSGLGRAGTTAGASEIKREEKEDEEIASVADAEEDKKDLKVPRTRTSPDEDEDDLLPPEQKAEREKERRVANNARERLRVRDINEAFKELGRMCQLHLSSEKPQTKLLILHQAVAVILSLEQQVRERNLNPKAACLKRREEEKVSGVVGDPQLALSAAHPGLGEAHNPAGHL

In the assay the parent is B1. Description: co-immunoprecipitation (Flag-IP), blot quantified by ImageJ; Flag-E2A bait, Twist1-Myc prey; n = 3; parent: 1; read off a plot.
Consider chain 1 A190T, for which the response is ~0.52 relative expression (/GAPDH). Consider chain 1 F191S, for which the response is ~1.6 relative expression (/GAPDH). For chain 1 S192P the value was ~0.05 relative expression (/GAPDH).
